Reference: the RNAGym collection of RNA variant scans (doi:10.1073/pnas.2313332121)

B1: TPR t1 (parent)
chain: GACCAAUCUGCCCUCAGAGCUCGAGAACAUCUUCGGAUGCAGAGGAGGCAGGCUUCGGUGGCGCGAUAGCGCCAACGUCCUCAACCUCCAAUGCAUCCCACCACAUGAUGAUGCCUGAAGAGCCUUGGUUUUUUG

Variants of: B1
Assay: polymerase ribozyme fitness, log enrichment relative to wild type (log ratio); higher = more active; in vitro selection for triplet polymerase activity
Procedure, shortened: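 Fitness compares each genotype's enrichment to that of the wild type on a logarithmic scale, averaging replicates with inverse-variance weights. The logarithm is base 2. Enrichment came from Illumina sequencing of input and output libraries after one triplicate round of in vitro selection, which included frozen incubation at −7 °C, of PCR-built, transcribed mutant libraries of each subunit of a heterodimeric triplet polymerase ribozyme. Only genotypes with ≥10 input reads and ≥1 read per output were kept.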

Variant | polymerase ribozyme fitness (log ratio)
GACCAAUCUGCCCUCAGAGCUCGAGAACAGCUUCGGAUGCAGAGGAGGCAGGCUUCGGUGGCGCGAUAGGGCCAACGUCCUCAACCUCAAAUGCAUCCCACCACAUGAUGGUGCCUGAAGAGCCUUGGUUUUUUG [U30G C70G C89A A111G] | -7.35
GACCAAUCUGCCCUCAGAGCUCGAGAACACCUUCGGAUGCAGAGGAGGCAGGCAUCGGUGGCGCGAUAGCGCCAACGUCCUCAACCUCCAAUGCAUCCCACCACAUGAUGAUGCCUGAAGAGCCUUGGUUUUUUG [U30C U54A] | -2.81
GACCAAUCUGCCCUCAGAGCUCGAGAACAGCUUGGGAUGUAGAGGAGGCAGGCUUCGGUGGCGCGAUAGCGCUAACGUCCUCAACCUCCACUGCAUCCCACCACAUGAUGAUGUCUGAAGAGCCUUGGUUUUUUG [U30G C34G C40U C73U A91C C114U] | -7.29
GACCAAUCUGCCCUCAGAGCUCGAGAACAUAUUCGGAUGCAGAGGAGGCAGGCUUCGGUGGCGCGAUAGCGCCAACGUCCUCAACCUCCAAUGCAUCCCACCACAUGAUGAUGCCUGAACAGCCUUGGUUUUUUG [C31A G120C] | -4.32
GACCAAUCUGCCCUCAGAGCUCGAGAACAUAUUCGGAUGCAGAGGUGGCAGGCUUCGGUGGCGCGAUAGCGACAACGUCCUCAACCUCCAAUGCAUCCCACCACAUGAUGAUGCCUGAAGAGCCUUGGUUUUUUG [C31A A46U C72A] | -5.82
GACCAAUCUGCCCUCAGAGCUCGAGAACAGCUUCGGAUGCAGAGGAGGCAGGCUUCGGUCGCGCGAUAGCGCCAACGUCCUCAACCUCCAAUGCAUCCCACCACAUGAUGAUGCCUGAAGAGCUUUGGUUUUUUG [U30G G60C C124U] | -5.4
GACCAAUCUGCCCUCAGAGCUCGAGAACAUAUUCGGAUGCAGAGGAGGCAGGCCUCGGUUGCGCGAUAGCGCCAACGUCCUCAACCUCCAAUGCAUCCCACCACAUGAUGAUGCCUGAAGCGCCUUGGUUUUUUG [C31A U54C G60U A121C] | -5.42
GACCAAUCUGCCCUCAGAGCUCGAGAACAGCUUCGGAUGCAGAGGAGGCAGGCUUCGGUGGCGCGAUAUCGCCAACGGCCUCAACCUCCAAUGCAUCCCACCACAUGAUGAUGCCUGAAGAGCCUUGGUUUUUUG [U30G G69U U78G] | -3.84
GACCAAUCUGCCCUCAGAGCUCGAGAACAGCUUCGGAUGCAGAGGAGGCAGGCUUCGGUGGCGCGAUAGCGCCAACGUCCUCAACCUCCAAUGCAUCCCACCACAUGAUGAUGCCUGAAGAGCCUUGGUUUUUUG [U30G] | -5.83
GACCAAUCUGCCCUCAGAGCUCGAGAACAUAUUCGGAUGCAGAGGAGGCAGGCUUCGGUGGCGCGAUAGCGCCAACGUCCUCAACCUCCAAUGCAUCCCACCACAUGAUGAUGCAUGAAGAGCCUUGGUUUUUUG [C31A C115A] | -4.37
GACCAAUCUGCCCUCAGAGCUCGAGAACACCUUCGGAUGCAGAGGAGGCAGGCUUCGGUGGCGCGAUAGCGCCAACGUCCUCAACCUCCAAUGCAUCCCACCACAAGAUGAUGCCUGAAGAGCCUUGGUUUUUUG [U30C U106A] | -1.11
GACCAAUCUGCCCUCAGAGCUCGAGAACAUAUUCGGAUGCAGAGGAGGCAGGCUUCGGUGGCGCGAUAGCGCCAACGUCCUCAACCUCCAAUGCAUCCCACCACAGUAUGAUGCCUGAAGAGCCUUGGUUUUUUG [C31A U106G G107U] | -1.91
GACCAAUCUGCCCUCAGAGCUCGAGAACACCUUCGGAUGCAGAGGAGGCAGGCUUCGGUGGCGCGAUAGCGCCAACGUCCUCAACCACCAAUGCAUCCCACCACAUGAUGAUGCCUGAAGAGCCUUGGUUUUUUG [U30C U87A] | -2.98
GACCAAUCUGCCCUCAGAGCUCGAGAACAGCUUCGGAUGCAGAGGAGGCAGGCUUCGGUCGCGCGAUAGCGCCAACGUCCUCAACCUCCAAUGCAUCCCACCACAUGAUGAAGCCUGAAGAGCCUUUGGUUUUUG [U30G G60C U112A G127U U129G] | -5.06
GACCAAUCUGCCCUCAGAGCUCGAGAACAUAUUCGGAUGCAGAGGAGGCAGGCAUCGGUGGCGCGAUAGCGCCAACGUCCUCAACCUCAAAUGCAUCCCACCACAUGAUGAUGCCUGAAGUGCCUUGGUUUUUUG [C31A U54A C89A A121U] | -7.04
GACCAAUCUGCCCUCAGAGCUCGAGAACAUGUUCGGAUGCAGAGGAGGCUGGCUUCGGUCGCGCGAUAGCGCCAACGUCCUCAACCUCCAAUGCAUCCCACCACAUGAUCAUGCCUGAAGAGCCUUGGUUUUUUG [C31G A50U G60C G110C] | -6.92
GACCAAUCUGCCCUCAGAGCUCGAGAACAUAUUCGGAUGCAGAGGAGGCGGGCUGCGGUGGCGCGAUAGCGCCAACGUCCUCAACCUCCAAUGCAUCCCACCACAUAAUGAUGCCUGAAGAGCUUUGGUUUUUUG [C31A A50G U55G G107A C124U] | -3.71
GACCAAUCUGCCCUCAGAGCUCGAGAACAUAUUCGGAUGCAGAGGAGGCAGGCUUCGGUGGCGCGAUAGCGCCAACGUCCUCAACCUUCAAUGCAUCCCACCACAUGAUGAUGCCUGAAGGGCCUUGGUUUUUUG [C31A C88U A121G] | -2.7
GACCAAUCUGCCCUCAGAGCUCGAGAACAUAUUCGGUUGCAGAGGAGGCAGGCUUCGGUGGCGCGAUAGCGCCAACGUCCUCAACCUACAAUGCAUCCCACCACAUGAUGGGGCCUGAAGAGCCUUGGAUUUUUG [C31A A37U C88A A111G U112G U129A] | -7.12
GACCAAUCUGCCCUCAGAGCUCGAGAACACCUUCGGAUGCAGAGGAGGCAGGCUUCGGUGGCACGAUAGCGCCAACGUCCUCAACCUCCAAUGCAUCCCACCACAUGAUGAUGCCUGAAGAGCGUUGGUUUUUUG [U30C G63A C124G] | -3.09
GACCAAUCUGCCCUCAGAGCUCGAGAACAGCUUCGGAUGCAGAGGAGGCAGGCUUCGGUGGCGCGAUAUCGCCAACGUCCUCAACCUCCAAUGCAUCCCACCACAUGAUGAUGCCUGAAAAGCCUAGGUUGUUUG [U30G G69U G120A U126A U131G] | -4.39

Variant | polymerase ribozyme fitness (log ratio)
GACCAAUCUGCCCUCAGAGCUCGAGAACACCUUCGGAUGCAGAGGAGGCAGGCUUCGGUGGCUCGAUAGCGCCAACGUCCUCAAUCUCCAAUGCAUCCCACCACAUGAUGAUGCCUGAAGAGCCUUGGUUUUUUG [U30C G63U C85U] | -5.85
GACCAAUCUGCCCUCAGAGCUCGAGAACAUAUUCGGAUGCAGAGGAGGCAGGCUUCGGUGGCGCGAUAGCGCCAACGUCCUCAACCUCCAAUGCAGCCCACCACAUGAUGAUGCCUGAAGGGCCUUGGUUUUUUG [C31A U96G A121G] | -4.67
GACCAAUCUGCCCUCAGAGCUCGAGAACAGCUUCGGAUGCAGAGGAGGCAGGCUUCGGUGGCGCGAUAGCGCCAACGUGCUCAACCUCCAAUGCAUCCCACCACAAGAUGAUGCCUGAAGAGCCUUGGUUUUUUG [U30G C79G U106A] | -3.54
GACCAAUCUGCCCUCAGAGCUCGAGAACAGCUUCGGAUGCAGAGGAGGCAGGCUUCGGUGGCGCGAUACCGCCAACGUCCUCAACCUCCAAUGCAUCCCACCACAUGCUGAUGCCUGAAGAGCCUUGGUUUUUUG [U30G G69C A108C] | -0.59
GACCAAUCUGCCCUCAGAGCUCGAGAACAUAUUCGGAUGCAGAGGAGGCAGGCUUCGGUGGCGCGAUAGCGCAAACGUCCUCAACCUCCAAUGCAUCCCACCACAUGAUGAUGCCUGAAGAGCCUUGGUUUUUUG [C31A C73A] | -5.35
GACCAAUCUGCCCUCAGAGCUCGAGAACAUAUUCGGAUGCAGAGGAGGCAGGCUUCGGUGGCGCGAUAGAGCCAACGUCCUCCACCUCCAAUGCAUCCCACCACAUGAUGAUUCCUGGAGAGCCUUGGUUUUUUG [C31A C70A A83C G113U A118G] | -6.98
GACCAAUCUGCCCUCAGAGCUCGAGAACAUAUUCGGAUGCAGAGGAGGCAGGCUUCGGUGGCGCGAUAGCGCCAACGUCCUCAACCUCCAAUGCAUCCCACCACAUGAUGAUGCCUGUAGAGCCUUGGUUUUUUG [C31A A118U] | -5.02
GACCAAUCUGCCCUCAGAGCUCGAGAACAUAUUCGGAUGCAGAGGAGGCAGGCUUCGGUGGCGCGAUAGCGUCAACGUCCUCAACCUCCAAUGCAUCCCACCACAUGAUGAUGCCUGAAGAGCCUUGGUUUUUUG [C31A C72U] | -5.82
GACCAAUCUGCCCUCAGAGCUCGAGAACAGCUUCGGAUGCAGAGGAGGCAGGCUUCGGUGGCGCGAUAGCGUCAACGUCAUCAACCUCCAAUGCAUCCCACCACAUGCUGAUGCCUGAAGAGCCUUGGUUUUUUG [U30G C72U C80A A108C] | -2.77
GACCAAUCUGCCCUCAGAGCUCGAGAACAUAUUCGGAUGCAGAGGAGGCAGGCUUCGGUGGCGCGAUAGCGCCAACGUCCUCAACCUCCAAUGCAUCCCACCACAUGAUGACGCCUGAAGAGCCUUGGUUUUUUG [C31A U112C] | -3.86
GACCAAUCUGCCCUCAGAGCUCGAGAACACCUUCGGAUGCAGAGGAGGCAGGCUUCGGUGGCGCGAUAGCGCCAACGUCCUCAACCUCCAAUGCAUCCCACCACAUGAUGAUCCCUGAAGAGCCUUGGUUUUUUG [U30C G113C] | -3.49
GACCAAUCUGCCCUCAGAGCUCGAGAACAGCUUCGGAUGCAGAGGAGGCAGGCUUGGGUGGCGCGAUAGCGCCAACGUCCUCAACCUCCAAUGCAUCCCACCACAAGAUGAUGCCUGAAGAGCCAUGGUUUUUUG [U30G C56G U106A U125A] | -2.32
GACCAAUCUGCCCUCAGAGCUCGAGAACAUAUUCGGAUGCAGAGGAGGCAGGCUUCGGUGACGCGAUAGCGCCAACGUCCUCAACCUCCAAUGUAUUCCACCACAUGAUGAUGCCUGAAGAGUCUUGGUUUUUUG [C31A G61A C94U C97U C123U] | -6.35
GACCAAUCUGCCCUCAGAGCUCGAGAACAUGUUCGGAUGCCGAGGAGGCAGGCUUCGCUGGUGCGAUAGCGCCAACGUCCUCAACCUCCAAUGCAUCCCACCACAUGAUGAUGCCUGAAGAGCCUUGGUUUUUUG [C31G A41C G58C C62U] | -8.8
GACCAAUCUGCCCUCAGAGCUCGAGAACAUAUUCGGAUGCAGAGCAGGUAGGCUUCGGUGGCGCGAUAUCGCCAACGUCCUUAACCUCCAAUGCAUCCCACCACAUAAUGAUGCCUGAAGAGCCUUGGUUUUUUG [C31A G45C C49U G69U C82U G107A] | -5.05
GACCAAUCUGCCCUCAGAGCUCGAGAACAGCUUCGGAUGCAGUGUAAGAAGGCUUCGGUGGCGCGAUAGCGCCAACGUCCUCAACCUCCAAUGCAUCCCACCACAAGAUGAUGCCUGAGGAGCCUUGGUUUUUUG [U30G A43U G45U G47A C49A U106A A119G] | -4.24
GACCAAUCUGCCCUCAGAGCUCGAGAACAUAUUCGGAUGCAGAUGACGCAGGCUUCGGUGGCGCGAUAGCGCCAACGGCCUCAACCUCCAAUGCAUCCCACCACAUGAUGAUGCCUGAACAGCCUUUGUUUUUUG [C31A G44U G47C U78G G120C G127U] | -6.6
GACCAAUCUGCCCUCAGAGCUCGAGAACACCUUCGGAUGCAGAGGAGGCAGGCUUCGGUGGCGCGAUAGCACCAACGUCCUCAACCUCCAAUGCAUCCCACCACAUGAUGAUGCCUGAAGAGCCUUGGUUUUUUG [U30C G71A] | -2.58
GACCAAUCUGCCCUCAGAGCUCGAGAACAGCUUGCGAUGCUGAGGAGGCAGGUUUCGGUGGCGCGAUAGCGCCAAUGUCCUCAACCUCCAAUGCAUCCCACCACAUGAUGAUGCCUGAAGAGCGUUGGUUUUUUG [U30G C34G G35C A41U C53U C76U C124G] | -8.38
GACCAAUCUGCCCUCAGAGCUCGAGAACAUAUUCGGAUGCAGAGGAGGCAGGCUUCGGUGGCGCGAUAGCGUCAACGUCCUCAACCUCCAAGGCAUCCCACCACAUGAUGAUUCCUGAAGAGCCUUGGUUUUUUG [C31A C72U U92G G113U] | -6.05
GACCAAUCUGCCCUCAGAGCUCGAGAACAUGUUCGGUUGCAGAGGAGGCAGGCUUCGGUGGCGCGAUAGCACCAAUGGCCUCAACCUCCAAUGCAUCCCACCACCUGAUCAUGCCUGAAGAGCCUUGGUUUUUUG [C31G A37U G71A C76U U78G A105C G110C] | -6.15
